Results taken from US5866538A, “Insulin preparations containing NaCl” (Novo Nordisk A/S, priority 1996, dated 1999).

How the values were obtained:
[1] = Stability of Asp^B28 human insulin solutions with varying Zn, NaCl and pH (Example I); format: physicochemical; conditions: 4 weeks at 37° C.
Description: Solutions containing 100 U/ml Asp^B28 human insulin, 2.6 mg/ml phenol, 16 mg/ml glycerol and varying amounts of Zn and sodium chloride were prepared. The pH was varied in the range of 7.2 to 7.5.

[2] = Stability tests of Asp^B28 human insulin preparations in Penfill cartridges, varying NaCl (Example III); format: physicochemical; conditions: phosphate 13.5 mM, pH 7.40
Description: 369.4 mg Asp^B28 human insulin was dissolved in water by adding 1.6 ml 0.2N HCl and 49 μl zinc chloride solution (40 mg Zn/ml). 40 g of a solution containing 40 mg/g glycerol, 3.75 mg/g phenol and 4.30 mg/g m-cresol was added to the solution while mixing. 10 g of a solution containing 24.0 mg/g disodium phosphate dihydrate and 11 μl/g 2N sodium hydroxide was added while mixing. Finally varying amounts (0 g to 4.38 g) of a solution containing 40 mg/g sodium chloride were added while mixing up to a sodium chloride concentration mentioned in Table 4. pH was adjusted to 7.40±0.05 and water added up to 100 ml. The Asp^B28 Human insulin preparations were introduced into Penfill® cartridges and subjected to stability tests at 25° C. and 37° C.

[3] = 13.1 μg Zn/100 U insulin, NaCl 0 mM, pH 7.2
[4] = 13.1 μg Zn/100 U insulin, NaCl 0 mM, pH 7.5
[5] = 13.1 μg Zn/100 U insulin, NaCl 5 mM, pH 7.2
[6] = 13.1 μg Zn/100 U insulin, NaCl 5 mM, pH 7.5
[7] = 13.1 μg Zn/100 U insulin, NaCl 20 mM, pH 7.2
[8] = 13.1 μg Zn/100 U insulin, NaCl 20 mM, pH 7.5
[9] = 16.3 μg Zn/100 U insulin, NaCl 0 mM, pH 7.2
[10] = 16.3 μg Zn/100 U insulin, NaCl 0 mM, pH 7.4
[11] = 16.3 μg Zn/100 U insulin, NaCl 5 mM, pH 7.2
[12] = 16.3 μg Zn/100 U insulin, NaCl 5 mM, pH 7.5
[13] = 16.3 μg Zn/100 U insulin, NaCl 20 mM, pH 7.2
[14] = 16.3 μg Zn/100 U insulin, NaCl 20 mM, pH 7.5
[15] = 19.6 μg Zn/100 U insulin, NaCl 0 mM, pH 7.2
[16] = 19.6 μg Zn/100 U insulin, NaCl 0 mM, pH 7.5
[17] = 19.6 μg Zn/100 U insulin, NaCl 5 mM, pH 7.2
[18] = 19.6 μg Zn/100 U insulin, NaCl 5 mM, pH 7.5
[19] = 19.6 μg Zn/100 U insulin, NaCl 20 mM, pH 7.2
[20] = 19.6 μg Zn/100 U insulin, NaCl 20 mM, pH 7.5
[21] = 22.8 μg Zn/100 U insulin, NaCl 0 mM, pH 7.2
[22] = 22.8 μg Zn/100 U insulin, NaCl 0 mM, pH 7.5
[23] = 22.8 μg Zn/100 U insulin, NaCl 5 mM, pH 7.2
[24] = 22.8 μg Zn/100 U insulin, NaCl 5 mM, pH 7.5
[25] = 22.8 μg Zn/100 U insulin, NaCl 20 mM, pH 7.2
[26] = 22.8 μg Zn/100 U insulin, NaCl 20 mM, pH 7.5
[27] = 6 weeks at 37° C., NaCl added 5 mM, total Cl^- 8.5 mM
[28] = 6 weeks at 37° C., NaCl added 12.5 mM, total Cl^- 16.3 mM
[29] = 6 weeks at 37° C., NaCl added 20 mM, total Cl^- 23.8 mM
[30] = 6 weeks at 37° C., NaCl added 25 mM, total Cl^- 28.8 mM
[31] = 6 weeks at 37° C., NaCl added 30 mM, total Cl^- 33.8 mM
[32] = 12 weeks at 25° C., NaCl added 0 mM, total Cl^- 3.8 mM
[33] = 12 weeks at 25° C., NaCl added 5 mM, total Cl^- 8.5 mM
[34] = 12 weeks at 25° C., NaCl added 12.5 mM, total Cl^- 16.3 mM
[35] = 12 weeks at 25° C., NaCl added 20 mM, total Cl^- 23.8 mM
[36] = 12 weeks at 25° C., NaCl added 25 mM, total Cl^- 28.8 mM
[37] = 12 weeks at 25° C., NaCl added 30 mM, total Cl^- 33.8 mM

Substance: Asp^B28 human insulin
- Asp^B28 Des-amido insulins formed [1, 3]: 3.44%
- Di- & polymers formed [1, 3]: 1.35%
- Asp^B28 Des-amido insulins formed [1, 4]: 3.57%
- Di- & polymers formed [1, 4]: 1.36%
- Asp^B28 Des-amido insulins formed [1, 5]: 3.48%
- Di- & polymers formed [1, 5]: 1.53%
- Asp^B28 Des-amido insulins formed [1, 6]: 3.31%
- Di- & polymers formed [1, 6]: 1.49%
- Asp^B28 Des-amido insulins formed [1, 7]: 2.54%
- Di- & polymers formed [1, 7]: 1.72%
- Asp^B28 Des-amido insulins formed [1, 8]: 2.47%
- Di- & polymers formed [1, 8]: 1.26%
- Asp^B28 Des-amido insulins formed [1, 9]: 3.35%
- Di- & polymers formed [1, 9]: 1.44%
- Asp^B28 Des-amido insulins formed [1, 10]: 3.41%
- Di- & polymers formed [1, 10]: 1.46%
- Asp^B28 Des-amido insulins formed [1, 11]: 1.74%
- Di- & polymers formed [1, 11]: 0.95%
- Asp^B28 Des-amido insulins formed [1, 12]: 2.58%
- Di- & polymers formed [1, 12]: 1.38%
- Asp^B28 Des-amido insulins formed [1, 13]: 1.91%
- Di- & polymers formed [1, 13]: 1.05%
- Asp^B28 Des-amido insulins formed [1, 14]: 2.00%
- Di- & polymers formed [1, 14]: 1.31%
- Asp^B28 Des-amido insulins formed [1, 15]: 3.07%
- Di- & polymers formed [1, 15]: 1.57%
- Asp^B28 Des-amido insulins formed [1, 16]: 2.85%
- Di- & polymers formed [1, 16]: 1.80%
- Asp^B28 Des-amido insulins formed [1, 17]: 2.71%
- Di- & polymers formed [1, 17]: 1.36%
- Asp^B28 Des-amido insulins formed [1, 18]: 2.24%
- Di- & polymers formed [1, 18]: 1.46%
- Asp^B28 Des-amido insulins formed [1, 19]: 1.56%
- Di- & polymers formed [1, 19]: 1.15%
- Asp^B28 Des-amido insulins formed [1, 20]: 1.68%
- Di- & polymers formed [1, 20]: 1.13%
- Asp^B28 Des-amido insulins formed [1, 21]: 2.71%
- Di- & polymers formed [1, 21]: 2.52%
- Asp^B28 Des-amido insulins formed [1, 22]: 2.34%
- Di- & polymers formed [1, 22]: 1.45%
- Asp^B28 Des-amido insulins formed [1, 23]: 2.18%
- Di- & polymers formed [1, 23]: 1.95%
- Asp^B28 Des-amido insulins formed [1, 24]: 1.90%
- Di- & polymers formed [1, 24]: 1.19%
- Asp^B28 Des-amido insulins formed [1, 25]: 1.51%
- Di- & polymers formed [1, 25]: 1.05%
- Asp^B28 Des-amido insulins formed [1, 26]: 1.46%
- Di- & polymers formed [1, 26]: 1.09%
- Asp^B28 Des-amido insulins formed [2, 27]: 4.1%
- Di- & polymers formed [2, 27]: 0.99%
- Asp^B28 Des-amido insulins formed [2, 28]: 3.6%
- Di- & polymers formed [2, 28]: 0.92%
- Asp^B28 Des-amido insulins formed [2, 29]: 3.0%
- Di- & polymers formed [2, 29]: 0.87%
- Asp^B28 Des-amido insulins formed [2, 30]: 3.0%
- Di- & polymers formed [2, 30]: 0.82%
- Asp^B28 Des-amido insulins formed [2, 31]: 2.8%
- Di- & polymers formed [2, 31]: 0.80%
- Asp^B28 Des-amido insulins formed [2, 32]: 2.7%
- Di- & polymers formed [2, 32]: 0.36%
- Asp^B28 Des-amido insulins formed [2, 33]: 2.3%
- Di- & polymers formed [2, 33]: 0.32%
- Asp^B28 Des-amido insulins formed [2, 34]: 1.8%
- Di- & polymers formed [2, 34]: 0.39%
- Asp^B28 Des-amido insulins formed [2, 35]: 1.7%
- Di- & polymers formed [2, 35]: 0.39%
- Asp^B28 Des-amido insulins formed [2, 36]: 1.8%
- Di- & polymers formed [2, 36]: 0.38%
- Asp^B28 Des-amido insulins formed [2, 37]: 1.7%
- Di- & polymers formed [2, 37]: 0.38%
